# Test results from US20260167699A1 (Chugai, published 2026).
# B1: GpH7-A5/GpH7-B3 variant S298_03V/GpL16-k0 (antibody, human IgG1, kappa)
# heavy 1: not shown
# heavy 2: not shown
# light: DIVMTQSPLSLPVTPGEPASISCQASESLVHSNRNTYLHWYLQKPGQSPQLLIYKVSNRFSGVPDRFSGSGSGTDFTLKISRVEAEDVGVYYCSQNTHVPPTFGQGTKVEIERTVAAPSVFIFPPSDEQLKSGTASVVCLLNNFYPREAKVQWKVDNALQSGNSQESVTEQDSKDSTYSLSSTLTLSKADYEKHKVYACEVTHQGLSSPVTKSFNRGEC
# notes: copies: 1 + 1 + 2
# B2: GpH7-A5/GpH7-B3 variant S298_09D/GpL16-k0 (antibody, human IgG1, kappa)
# heavy 1: not shown
# heavy 2: not shown
# light: B1 light
# notes: copies: 1 + 1 + 2
# B3: GpH7-A5/GpH7-B3 variant S337_10E/GpL16-k0 (antibody, human IgG1, kappa)
# heavy 1: not shown
# heavy 2: not shown
# light: B1 light
# notes: copies: 1 + 1 + 2
# B4: GpH7-A5/GpH7-B3 variant S324_20W/GpL16-k0 (antibody, human IgG1, kappa)
# heavy 1: not shown
# heavy 2: not shown
# light: B1 light
# notes: copies: 1 + 1 + 2
# B5: GpH7-A5/GpH7-B3 variant S337_04F/GpL16-k0 (antibody, human IgG1, kappa)
# heavy 1: not shown
# heavy 2: not shown
# light: B1 light
# notes: copies: 1 + 1 + 2
# B6: GpH7-A5/GpH7-B3 variant S324_18N/GpL16-k0 (antibody, human IgG1, kappa)
# heavy 1: not shown
# heavy 2: not shown
# light: B1 light
# notes: copies: 1 + 1 + 2
# B7: GpH7-A5/GpH7-B3 variant S337_11K/GpL16-k0 (antibody, human IgG1, kappa)
# heavy 1: not shown
# heavy 2: not shown
# light: B1 light
# notes: copies: 1 + 1 + 2
# B8: GpH7-A5/GpH7-B3 variant T335_08L/GpL16-k0 (antibody, human IgG1, kappa)
# heavy 1: not shown
# heavy 2: not shown
# light: B1 light
# notes: copies: 1 + 1 + 2
# B9: GpH7-A5/GpH7-B3 variant S324_12R/GpL16-k0 (antibody, human IgG1, kappa)
# heavy 1: not shown
# heavy 2: not shown
# light: B1 light
# notes: copies: 1 + 1 + 2
# B10: GpH7-A5/GpH7-B3 variant S324_16H/GpL16-k0 (antibody, human IgG1, kappa)
# heavy 1: not shown
# heavy 2: not shown
# light: B1 light
# notes: copies: 1 + 1 + 2
# B11: GpH7-A5/GpH7-B3 variant S324_02A/GpL16-k0 (antibody, human IgG1, kappa)
# heavy 1: not shown
# heavy 2: not shown
# light: B1 light
# notes: copies: 1 + 1 + 2
# B12: GpH7-A5/GpH7-B3 variant S324_15Y/GpL16-k0 (antibody, human IgG1, kappa)
# heavy 1: not shown
# heavy 2: not shown
# light: B1 light
# notes: copies: 1 + 1 + 2
# B13: GpH7-A5/GpH7-B3 variant S337_08L/GpL16-k0 (antibody, human IgG1, kappa)
# heavy 1: not shown
# heavy 2: not shown
# light: B1 light
# notes: copies: 1 + 1 + 2
# B14: GpH7-A5/GpH7-B3 variant S337_16H/GpL16-k0 (antibody, human IgG1, kappa)
# heavy 1: not shown
# heavy 2: not shown
# light: B1 light
# notes: copies: 1 + 1 + 2
# B15: GpH7-A5/GpH7-B3 variant T335_05P/GpL16-k0 (antibody, human IgG1, kappa)
# heavy 1: not shown
# heavy 2: not shown
# light: B1 light
# notes: copies: 1 + 1 + 2
# B16: GpH7-A5/GpH7-B3 variant S337_12R/GpL16-k0 (antibody, human IgG1, kappa)
# heavy 1: not shown
# heavy 2: not shown
# light: B1 light
# notes: copies: 1 + 1 + 2
# B17: GpH7-A5/GpH7-B3 variant S337_06M/GpL16-k0 (antibody, human IgG1, kappa)
# heavy 1: not shown
# heavy 2: not shown
# light: B1 light
# notes: copies: 1 + 1 + 2
# B18: GpH7-A5/GpH7-B3 variant T335_02A/GpL16-k0 (antibody, human IgG1, kappa)
# heavy 1: not shown
# heavy 2: not shown
# light: B1 light
# notes: copies: 1 + 1 + 2
# B19: GpH7-A5/GpH7-B3 variant T335_06M/GpL16-k0 (antibody, human IgG1, kappa)
# heavy 1: not shown
# heavy 2: not shown
# light: B1 light
# notes: copies: 1 + 1 + 2
# B20: GpH7-A5/GpH7-B3 variant T335_04F/GpL16-k0 (antibody, human IgG1, kappa)
# heavy 1: not shown
# heavy 2: not shown
# light: B1 light
# notes: copies: 1 + 1 + 2
# B21: GpH7-A5/GpH7-B3 variant S324_07I/GpL16-k0 (antibody, human IgG1, kappa)
# heavy 1: not shown
# heavy 2: not shown
# light: B1 light
# notes: copies: 1 + 1 + 2
# B22: GpH7-A5/GpH7-B3 variant S337_07I/GpL16-k0 (antibody, human IgG1, kappa)
# heavy 1: not shown
# heavy 2: not shown
# light: B1 light
# notes: copies: 1 + 1 + 2
# B23: GpH7-A5/GpH7-B3 variant T335_03V/GpL16-k0 (antibody, human IgG1, kappa)
# heavy 1: not shown
# heavy 2: not shown
# light: B1 light
# notes: copies: 1 + 1 + 2
# B24: GpH7-A5/GpH7-B3 variant S298_12R/GpL16-k0 (antibody, human IgG1, kappa)
# heavy 1: not shown
# heavy 2: not shown
# light: B1 light
# notes: copies: 1 + 1 + 2
# B25: GpH7-A5/GpH7-B3 variant S298_16H/GpL16-k0 (antibody, human IgG1, kappa)
# heavy 1: not shown
# heavy 2: not shown
# light: B1 light
# notes: copies: 1 + 1 + 2
# B26: GpH7-A5/GpH7-B3 variant S298_18N/GpL16-k0 (antibody, human IgG1, kappa)
# heavy 1: not shown
# heavy 2: not shown
# light: B1 light
# notes: copies: 1 + 1 + 2
# B27: GpH7-A5/GpH7-B3 variant S324_03V/GpL16-k0 (antibody, human IgG1, kappa)
# heavy 1: not shown
# heavy 2: not shown
# light: B1 light
# notes: copies: 1 + 1 + 2
# B28: GpH7-A5/GpH7-B3 variant S337_01G/GpL16-k0 (antibody, human IgG1, kappa)
# heavy 1: not shown
# heavy 2: not shown
# light: B1 light
# notes: copies: 1 + 1 + 2
# Molecular target: T1, FcγRIIIa (human, UniProt P08637 17-208)
# T1 construct: extracellular domain; also called 3a; FcγRIIIa extracellular domain
# Test: SPR (Biacore);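 further: antibody variants captured on an SPR sensor chip, with FcγRIIIa passed over as analyte in HBS-EP+ buffer at 25 °C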
# T1 sequence (P08637 other isoform, or with tags, fused parts or gaps): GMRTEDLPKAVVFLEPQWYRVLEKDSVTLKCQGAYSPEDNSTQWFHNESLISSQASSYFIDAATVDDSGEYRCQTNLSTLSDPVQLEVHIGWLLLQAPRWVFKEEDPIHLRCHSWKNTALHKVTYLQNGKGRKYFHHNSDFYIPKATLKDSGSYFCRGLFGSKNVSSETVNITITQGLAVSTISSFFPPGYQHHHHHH
row,Binder,He/Con 3a
1,B1,103 % of GpH7-A5/GpH7-B3/GpL16-k0
2,B2,62.7 % of GpH7-A5/GpH7-B3/GpL16-k0
3,B3,97.8 % of GpH7-A5/GpH7-B3/GpL16-k0
4,B4,111 % of GpH7-A5/GpH7-B3/GpL16-k0
5,B5,94.4 % of GpH7-A5/GpH7-B3/GpL16-k0
6,B6,103 % of GpH7-A5/GpH7-B3/GpL16-k0
7,B7,80.1 % of GpH7-A5/GpH7-B3/GpL16-k0
8,B8,97.8 % of GpH7-A5/GpH7-B3/GpL16-k0
9,B9,98.1 % of GpH7-A5/GpH7-B3/GpL16-k0
10,B10,113 % of GpH7-A5/GpH7-B3/GpL16-k0
11,B11,113 % of GpH7-A5/GpH7-B3/GpL16-k0
12,B12,110 % of GpH7-A5/GpH7-B3/GpL16-k0
13,B13,90.2 % of GpH7-A5/GpH7-B3/GpL16-k0
14,B14,100 % of GpH7-A5/GpH7-B3/GpL16-k0
15,B15,100 % of GpH7-A5/GpH7-B3/GpL16-k0
16,B16,92.7 % of GpH7-A5/GpH7-B3/GpL16-k0
17,B17,89.7 % of GpH7-A5/GpH7-B3/GpL16-k0
18,B18,90.9 % of GpH7-A5/GpH7-B3/GpL16-k0
19,B19,97 % of GpH7-A5/GpH7-B3/GpL16-k0
20,B20,91.7 % of GpH7-A5/GpH7-B3/GpL16-k0
21,B21,101 % of GpH7-A5/GpH7-B3/GpL16-k0
22,B22,88.3 % of GpH7-A5/GpH7-B3/GpL16-k0
23,B23,96.3 % of GpH7-A5/GpH7-B3/GpL16-k0
24,B24,52.1 % of GpH7-A5/GpH7-B3/GpL16-k0
25,B25,71.9 % of GpH7-A5/GpH7-B3/GpL16-k0
26,B26,51.4 % of GpH7-A5/GpH7-B3/GpL16-k0
27,B27,101 % of GpH7-A5/GpH7-B3/GpL16-k0
28,B28,95.2 % of GpH7-A5/GpH7-B3/GpL16-k0
